In paper PMC4270772 (PLoS Pathogens, 2014):

Target: T1, recombinant trimeric gp140 from HIV-1 92UG037 (clade A) (HIV-1 92UG037 (clade A), UniProt Q5VFI3, strain)
T1 construct: source: provided by S. Jeffs (Imperial College London)
Test: ELISA
Details: both partners purified

B1: 3E3 with the three germ line CDR2 residues re-inserted (VHH)
VHH: EVQLVESGGGLVQPGGSLRLSCAASQFTLESYAIGWFRQAPGKDSEGVACISSSDGSTYYADSVKGRFTISRDNAKNTVYLQMESLKPEDTAVYHCATSGAGSYCTLRAFGSWGQGTQVTVSS
B1: no binding.
